In patent US20150175708A1:

Experiments:
[1] = target: MET on the cell surface of human tumor cell lines (human) (UniProt P08581); test: cell-based or functional assay
[2] = target: EGFR on the cell surface of human tumor cell lines (human) (UniProt P00533); test: cell-based or functional assay

Chain of MET on the cell surface of human tumor cell lines (human) (P08581 25-1390): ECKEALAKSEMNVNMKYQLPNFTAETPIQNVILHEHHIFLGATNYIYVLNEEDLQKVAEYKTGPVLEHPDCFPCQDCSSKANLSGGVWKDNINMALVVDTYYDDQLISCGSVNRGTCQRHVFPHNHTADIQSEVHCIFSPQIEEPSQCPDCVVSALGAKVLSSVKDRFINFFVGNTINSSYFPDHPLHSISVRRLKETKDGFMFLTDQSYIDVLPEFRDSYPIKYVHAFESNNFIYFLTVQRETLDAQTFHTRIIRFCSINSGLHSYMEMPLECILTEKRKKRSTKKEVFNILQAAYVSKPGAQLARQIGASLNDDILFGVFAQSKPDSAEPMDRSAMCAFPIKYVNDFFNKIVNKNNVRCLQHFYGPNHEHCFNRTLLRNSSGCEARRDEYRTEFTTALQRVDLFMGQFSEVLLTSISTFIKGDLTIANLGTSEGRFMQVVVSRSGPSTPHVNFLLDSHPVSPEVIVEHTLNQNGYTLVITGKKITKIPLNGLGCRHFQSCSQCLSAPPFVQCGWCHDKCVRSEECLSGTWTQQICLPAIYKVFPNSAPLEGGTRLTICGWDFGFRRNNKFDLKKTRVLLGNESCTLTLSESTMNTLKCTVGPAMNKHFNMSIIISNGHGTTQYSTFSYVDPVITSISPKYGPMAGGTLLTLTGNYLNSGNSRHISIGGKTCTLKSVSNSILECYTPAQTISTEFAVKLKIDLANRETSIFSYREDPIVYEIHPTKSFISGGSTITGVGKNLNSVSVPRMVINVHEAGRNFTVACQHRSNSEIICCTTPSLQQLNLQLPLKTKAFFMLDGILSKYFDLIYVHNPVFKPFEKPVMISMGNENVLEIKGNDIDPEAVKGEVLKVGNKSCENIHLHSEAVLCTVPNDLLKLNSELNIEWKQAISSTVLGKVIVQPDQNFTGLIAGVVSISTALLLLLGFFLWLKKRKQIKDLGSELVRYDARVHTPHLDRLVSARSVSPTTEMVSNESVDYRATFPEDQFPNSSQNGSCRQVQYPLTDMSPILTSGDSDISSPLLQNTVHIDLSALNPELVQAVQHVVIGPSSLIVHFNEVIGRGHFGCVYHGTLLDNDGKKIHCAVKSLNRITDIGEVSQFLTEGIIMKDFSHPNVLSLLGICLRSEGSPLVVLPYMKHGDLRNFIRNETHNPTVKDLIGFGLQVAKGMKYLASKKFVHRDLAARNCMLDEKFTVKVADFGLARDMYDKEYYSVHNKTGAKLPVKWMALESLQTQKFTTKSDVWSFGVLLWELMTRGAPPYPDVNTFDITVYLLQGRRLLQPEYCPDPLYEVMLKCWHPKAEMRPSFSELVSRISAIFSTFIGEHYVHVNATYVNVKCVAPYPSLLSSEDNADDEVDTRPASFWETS

A % cell surface MET remaining, H441 cells, antibody 50 nM; isotype control, reference for the % [1] of 100%, an AVG of MFI (staining of cell surface MET), H441 cells, antibody 50 nM; isotype control, reference for the % [1] of 77.4 MFI and a % cell surface EGFR remaining, H441 cells, antibody 50 nM; isotype control, reference for the % [2] of 100% were found for hIgG4 (antibody) in this work. The AVG of MFI (staining of cell surface EGFR), H441 cells, antibody 50 nM; isotype control, reference for the % [2] was 56.3 MFI.
